In experiment [1] the target is HLA-DR1 (human). As to the kind of experiment: fluorescence polarization competition; displaces 25 nM fluorescently-labeled polypeptide from 500 nM HLA-DR1.
Experiment [2] concerns the target HLA-DR1 (human). Described as above. The source holds these as a separate data set.

The source of these data is patent publication US20250074946A1 (HEBEI FITNESS BIOTECHNOLOGY, published 2025).

Like-named read-outs stand apart in the source and are kept apart here.

Broadly, the IC50 is the concentration needed to halve the response being measured. High values mean a need for much substance, low ones inhibition by little substance.

IWYINCFGCRTAAML [APL55] came in with a half-inhibitory concentration (IC50) in the experiment with HLA-DR1 [1] of 98.8 µM. On the same count and under the same terms, the value for IWYINCFGCHTAAML [APL56] was 69.2 µM.

Turning to RSFTLASSEAGVG [APL18], the half-maximal inhibitory concentration (IC50) with HLA-DR1 [2] amounted to 4.88 µM. This lies in the single-digit micromolar range.

The molecule IWYINCFACETHAML [APL11] came in with an IC50 with HLA-DR1 [2] of 3.98 µM.

Regarding FKGRQAGAGE [APL41], the IC50 with HLA-DR1 [1] came out at 88.4 µM. In the case of IWYITCFGCETHAML [APL10], the IC50 with HLA-DR1 [2] amounted to 5.87 µM. On the same count and under the same terms, with IWYINCFVCETHAML [APL12] the figure was 5.2 µM; with FKGEQAGAGE [FNS007 (APL2)], 3.37 µM.

With RSFTLAASETGVG [APL16], in the experiment with HLA-DR1 [2], the IC50 was determined as 5.55 µM. RSGTLASAETGVG [APL60] gave an IC50 with HLA-DR1 [1] of 61.7 µM. This counts as double-digit micromolar. In the case of RSFTAASSETGVG [APL14], in the experiment with HLA-DR1 [2], the IC50 turned out to be 6.54 µM. On the same count and under the same terms, the value for RSFTLASSATGVG [APL17] was 3.53 µM.

For IWYISCFGCETHAML [APL9], in the experiment with HLA-DR1 [2], the half-inhibitory concentration (IC50) stood at 5.09 µM. Same read-out and setting: with SIDLKDKKYKNIGAKLVQLVANNTNEEA [APL20] the figure was 3.88 µM; with IWYIQCFGCETHAML [APL8], 5.47 µM. Still for that read-out and setting: the value for RSFALASSETGVG [APL13] was 5.02 µM; that for MGPKGRTVIIEQSLGSPKVTK (also called ALP21) [APL21] was 4.15 µM.
